Assay: soluble fraction after stress (log2 fold change); higher = more stays soluble; pooled small domains, quantitative proteomics
Details: stress: 50 degC
Procedure, shortened: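 Custom libraries of small protein domains were pooled and measured in a high-throughput format, with quantitative proteomics as the read-out. Each library was stressed at 50°C. The value is the log2 fold change in the amount of each protein that stays soluble after stress, used as a measure of aggregation propensity; higher values mean more of the protein stays soluble.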

Going from “HMPKTLTEAAYEDIKQWILEGEITPGSKISLEDTASRLEVSMTPIREALTKLQQEGLVEYIPRAGWRASK” to “HMSSDDEAFKRELVGLIPHLRAFARTLTGDPTAADDLAQDAMMKAWDARASYQMGTNMKAWTFMILRNQFY”, the “soluble fraction (log2)” value falls from 0.173 to -2.22.

First: HMNDYIGVDRAKEIALNHARMNESDVQFAKAKLENDDGVVEYEIEFYFGRTEYDYTIDAVSGNIIEYDVEY
Second: HMNSNLSLTSYEEKIFFLLEKEKNLDELILESSFKAGEILSILMDLEIKHAIVSIPGGKYRRK
The “soluble fraction (log2)” value of the first is higher: -1.05 for the first, -2.84 for the second.

Compared with “HMEKTEQMQVILDYIARYGEINNEKVQEILGVKRTRAYTILKQMVENGFVTTNGRGEEKKYYSIR”, “HMDADRLSPREREMLQFIARGQSNKEIARALELAESTVKIHVQNMLRKLNLSSRVQAAVFAVENGLG” is higher in “soluble fraction (log2)” value: -0.336 for the first, -0.109 for the second.

“HMKHFTYEEMELMSIYDPGTREGLIANLEEMRGYLEPDETELRELTDSALEKLRELSDADYEQLELI” and “HMSGLGELTPRELEVLELMAQGLSNSQIAGRLFLSGAAVAKHVSSIFSKLGFEPGDENRRVRAILAFLNR” are within 0.2 log units of each other in “soluble fraction (log2)” value: -0.476 for the first, -0.422 for the second.

First: HMLGSVRTIRQVLDDGRLIVADGGGNPSVIRRSGALAHETFANGQRVIVDPSGRLALELLPD
Second: HMIPPGTITIEGAITKVPVFLDGKQIGTVPLTKEDVEPGKYRIRVLGVGRVITIDPGEKENVLFSGEDLGL
The “soluble fraction (log2)” value of the first is higher: 0.314 for the first, -0.142 for the second.

Compared with “HMYPGQILEIYLDEIKRLYLNGLSSADIFAEIKEGSIPSVKKAIRSMKDGSAPVKITEAEESTRIAPS”, “HMGAVDIATARQLISEIGLPIMLKAEGGGGGRGIFAIHNEAELEDAFFKASTMAQASFGNPRLFVEKF” is higher in “soluble fraction (log2)” value: -0.441 for the first, -0.228 for the second.

“HMGEQLALLERARTLLEDETLETEVQKELEMLLEDIEAARAEANATQLEDLFEELADLLFDLE” and “HMLTSAQLAEIRQAVRAGQASVVEDLLKNGASPNFRMENGDTGFTYAVRADTPQVAEALLKSGKL” are within 0.2 log units of each other in “soluble fraction (log2)” value: -0.0786 for the first, -0.0678 for the second.

Going from “HMKIDLPIWLNKKAWEAWVEYKKERKQKLTPSIIKFQLRILEKNKEDHPEIIRNSITNGWTGLFPLK” to “HMQQDVLKLKSGGNYKGEYINIESAYVLFKPEGGNATQRIKVNEIQMLKLADGTEVIFGGRVK”, the “soluble fraction (log2)” value rises from -1.27 to 0.0478.

“HMDGQGIRSITPEYYLSDSATKMPDASSSGWKSVPDDYIDKHYYWVRSKILWDDGTYTTTTPVL” and “HMGAGLDDLVRKSLHNAGLKADDNVVSWISGNLGSDRMVSRMELEKLVLFVAGQSEITLEDAQAVIGD” are within 0.2 log units of each other in “soluble fraction (log2)” value: -0.364 for the first, -0.305 for the second.

“HMQITDTEAIATTLDEIIAANPKEWERLKAGQEQLVKFFVGQVMRVTKGRANPQVVNDLLKERL” and “HMDLTKLFDHDSEYGKSYVFGKITDEMIARAEQTLGYRMPASYIELLKVQNGGMISDELDESWLTTIYGIG” are within 0.2 log units of each other in “soluble fraction (log2)” value: -0.075 for the first, -0.24 for the second.

Compared with “HMAKIATTVYEQIRTAILNGELSNSERLVEEDLAVSMGISRTPVREALRRLAAEGLVDVSPNRGARVAE”, “HMNVEATAETLLALLKKNGGSLPFGDKSDPEAIQSQLKMSKKTFKKAAGTLFKKKLVRIEDHGIFL” is lower in “soluble fraction (log2)” value: -0.293 for the first, -0.657 for the second.

First: HMTESIHVGSKVTINNNAKRWATGQNIYSGVKGKTYTVIQMNGSRLLLDKVISWINKGDVHLPGS
Second: HMHDRRSGKVKWYSDRKGYGFIDLDGGEVFIHRSALIAFGALRLQAEDIITITVRETDRGLVVDQLFGIER
The “soluble fraction (log2)” value of the first is higher: -1.64 for the first, -2.03 for the second.

“HMSSPEAAEVQRLLKDGQHVQALKIIDESLARNPKDPQMRFRRGVALSMLDRKNEALAVFQKLVED” and “HMGSGKGAAHTILGISADASDDEIKAAWRKLVQENHPDKLVSQGLPDEFVQAATDRLRLINTAYQSMLNRP” are within 0.2 log units of each other in “soluble fraction (log2)” value: -0.043 for the first, -0.0378 for the second.

First: HMAHSWEAIRVKLQQIIDEEDKTKPLNDDQIKEKLAEAGIPNLARRTVAKYRKLLNIPTARFRKR
Second: HMTNVIPKAMAPFNGSTIIADGIKNIKDHIDNLYITVGYKGATLSEHVINKGVSAVFNTTGKGNAWWVYN
The “soluble fraction (log2)” value of the first is lower: -0.313 for the first, 0.0606 for the second.

“HMGPAYQTQRQEAFAALSEIAAKNPQLMQVAGDLVFRAADFPMADELADRLAKTLPPQLQDKKGQP” and “HMDRFVLQLSKRYYDSSIEGVRKALAAFPVKTELLDQDRGGRPFYHENGKENEPVFRIMFHPEEGM” are within 0.2 log units of each other in “soluble fraction (log2)” value: -0.464 for the first, -0.542 for the second.

Going from “HMEDYYKILGVSKDASIDDIKKSYRKLSLQNHPDRNKSPQASENFAKINSAYEVLSDQRKKRQYDMQQSM” to “HMKSGLLNLSTRKQEKIKQALLSEFSNVSLLEAKVANIVTLAEISRGSFYTYFEDIYDAYQWLASI”, the “soluble fraction (log2)” value falls from 0.0897 to -0.26.

Going from “HMIHANGLTDRQEMILEFIRSYISENNYPPSVREIGKGVGLASSASVHNNMKKLASLGFLNWDTD” to “HMKYRLLGENLQTIRKARGMKQQELADQIGINMQSLSKIERGLNYPTFETLEKIMNALGITPNELLSG”, the “soluble fraction (log2)” value rises from -1.25 to -0.461.

First: HMEDNKLKNEIKNELVSHLEKPYSVEDLADALKYHGSAAFKLIVQELAILERERAVVVTHDGNFKINSS
Second: HMDEWKRKELWDAIARLPKIQRMVVTMRTTENLPYKEIAKIMNISENSAKVNYHHAVEALKIFF
The “soluble fraction (log2)” value of the first is higher: -0.619 for the first, -2.66 for the second.

Compared with “HMTEIILTARSGRHAVRHRLEGLGYTLTPEELERVHQRFLAVADAKKEVFDEDLHALMADERGT”, “HMEREKTYLMPDLIGRKAERVVPRLQASGFKVEDIRHVYYPGLEKGVIVRQSPPGGYPIQKRNLINLEVS” is lower in “soluble fraction (log2)” value: 0.0349 for the first, -0.333 for the second.

First: HMITNSTEIEAMIDSLIKENPEQAEQYRNGNTKVVGWFVGQMMKASKGKANPQVVGDLLAQKLVG
Second: HMFSSVSVPAELSNQRFDKVVAELTPDLSRSKIKQLILLGKVLLNGEVTPPKQKVETGDEIEIFYTRQIE
The “soluble fraction (log2)” value of the first is higher: 0.0323 for the first, -0.63 for the second.

Going from “HMHPRDREENKYLLLRGERIYEESIGEKRLYVEAALHKYEKALSSYDTGLIDEAKEEFKKFLEEIEEA” to “HMDGTAKVAHMLVNELETFNRLKKHEIAYMLHIQPETLSRILNKLTRNGTIEIEKNSVVILNIQELKEIY”, the “soluble fraction (log2)” value falls from -0.0765 to -1.55.

First: HMGRQVTVPNVTGMLVEEARAAISEAELWVDSPRAVQGEVTRQEPARGERLSPGQEVRIYTES
Second: HMLNENNHGEWSIRMSNGLVVRLGRDELNRSLRRSIMAYAGLAPNYRSSIEYIDARYLGGVALKTF
The “soluble fraction (log2)” value of the first is higher: 0.31 for the first, -0.091 for the second.

First: HMSVFMIIVLKQHAPQEFVDMLMSSIKAKGVQIDVSKGARKTILGLVGNTSVIDREQIAGYEYVDKVIRV
Second: HMYYNQGILKSGASVYGEPGITSSHRLEIPSGSFVDIVQEKDEWVYYEKNHVNHGWVLRENIYIPSL
The “soluble fraction (log2)” value of the first is lower: -0.85 for the first, 0.0681 for the second.

Going from “HMTAQLAAQERTHALDMFMGGYKFSSKPAENGVRAEFEKKNFTLEDGKFLGGDEFMKSLMENDDYKGAFV” to “HMFGEKEFYQWIGKTAGEKFSGLPAAVIKSLYKYWREYNLSEEDIMGFIRQTELLPKRTPLDVELFFEK”, the “soluble fraction (log2)” value falls from 0.375 to -0.456.

First: HMGNIKVPSVMGMTLEGAEKVAKDNGAVIEVLEYKESTEEDGTIIEQSPKADMTVATLEKISVVISGK
Second: HMKEMTAKQIDMFSDKLSKLESFQSHYIADAGVSVTEYKQAIAAKLQDQFYVEAWGKYLADVGFT
The “soluble fraction (log2)” value of the first is higher: -0.105 for the first, -0.505 for the second.

Compared with “HMKEAISIYPNPVKDILTIRGMDETSGVSFKLYDVTGNLLLESTHSELDMSGLNRGVYFLDIAGDVRKVVK”, “HMPQIDLYPFEVRIEQDNNAAEYAVRFLDVPNIIGSGASIDEAIVEARGNLKEYLDYLIDTNRDIPLPS” is lower in “soluble fraction (log2)” value: 0.0696 for the first, -0.412 for the second.

Going from “HMATVTVPNLKGMTPSGAESALAELNLKGAVGDSVESNDVENGKVASQDQAAGSDAKEGDTITYHLSS” to “HMAFIEADIGKRIKSLRNKKRITLESLAAETGFTKGYLSKVETSEKAPPVSTLGSIARALGVSISTLLGE”, the “soluble fraction (log2)” value falls from 0.0967 to -0.224.

First: HMKSEMYIDLSNALLKMSERDKELLTYRYTMEMSSKEISQITGIKESNVNSYIRRAREKLLKIFNAMNK
Second: HMGWQPDPLTTRERLVAELATQASNAQIAEQLHLSVRTVEGHLAHVYTKLGITTRRELPAALAGAR
The “soluble fraction (log2)” value of the first is lower: -3.04 for the first, -0.891 for the second.

Going from “HMPHFFISTSDVNQDIITVSDKENFHHIARVLRSKVGETLLLVDENRTQYKVVIQNIDSKSITTKVVETLK” to “HMAPSPEGAAILRESVESVARDQVDRVALTMTARGYTTAEIAAALMVDRSTISRRLYAMRDRYHAQQDNAQ”, the “soluble fraction (log2)” value falls from -0.138 to -0.37.

Going from “HMKKQLKSEAVADELRRKILSGGFPDKRLPRKDELTEYFQVSQKTVEAALKMLTAEGLIRGVKGTGIFVNG” to “HMSVGDLPPEAREIWKLLDGRELSLDLLAEETGRETGALLSTLMMLEMKLLVEHGSDMVYRRIPRR”, the “soluble fraction (log2)” value falls from -0.0396 to -1.78.

Going from “HMKLVAAGYHQNRLLVLLGIQAEELQAKRLLASFDRFRGREATPKPPIHDSARRWLRDTYHHVMNQVPVEL” to “HMRGLLSQREHDVLDLVARGFSYGEIARLRSISVSTVQTHIKNLYRKLAVSSRTEAVYEAKQMGI”, the “soluble fraction (log2)” value falls from -1.07 to -1.59.

“HMDKLEKRILDYLLQKSAIDGSTILKISHREMAMDLGTAREVVTRILKKLETGGFVRQGENYLEILK” and “HMVAELAEMAENKNITSAQLALAWILKQSENIIPIPGTKRIKYLNENIEAVNVDLSKEDVENIENLLRKYP” are within 0.2 log units of each other in “soluble fraction (log2)” value: -0.145 for the first, -0.0297 for the second.

Compared with “HMGRLPMNIVRAIVEHLDRHASYSEINRATGASKGFISKVAAAVEAASLTPEKFLLLNDEDIQNRITPGR”, “HMGPAAGVVEKYNLAHLSTGEMIRKEIAEGSDFGKMAAGIINKGELLSDEFVVALIENSIEHHKNVDGFLF” is higher in “soluble fraction (log2)” value: -0.234 for the first, -0.00841 for the second.

Going from “HMYSDDNKSILNLIDNLFNKENIKIDINAKKLLSNYLGVDRLVTKGEIEKAILFAGTKKHLSIEDISAFLS” to “HMKESRLFRILYYLLQHKKATAPELAEEFEVSVRTIYRDIDYISSAGVPIYATQGKDGGIAILDSF”, the “soluble fraction (log2)” value falls from -0.0337 to -0.65.

Compared with “HMLGVLEYYNNGQKKSERTFKGGMQIYTEWYENGQMKAEERKWIDQLGSLKFLNLLSTEWDENGNEISRME”, “HMRSKTSYAVWTPIQIDAGSQMQALQSKGFNTVLMEGGISVGIRSDKAQAQALLNRLQGAGFTGQLREVN” is higher in “soluble fraction (log2)” value: -1.34 for the first, -0.183 for the second.

Compared with “HMTFENMFIENSGETLDREFLVENLRGISWQSYDRSVDVLVSRLRGKLGETPNNTRFIKTIHGVGYKFIGE”, “HMGGTFLVRILDPALNIRAQPSLTARINGVIRDKSVYTIVATSFEPKTQITWGKLKSGAGWISIGSKYVKK” is lower in “soluble fraction (log2)” value: -0.316 for the first, -3.52 for the second.

First: HMYDRIKLLKLREKRGLTQYELAEKAGISVVTLNKIETSDMAKPFASTLKKIALALGVGIEELS
Second: HMNNLVTRREVEILGWIKEGKTTSDIAGILSLSPFTVKNHVQNILKKLGARSRSHAVAQAINLGLLH
The “soluble fraction (log2)” value of the first is higher: -0.121 for the first, -0.773 for the second.

With “HMTGSETLQDIFAHLEAGTVRTALSLIPRLDAVEYEQNRQRIAELAGVRPSALDDLRKQAKREEN” the “soluble fraction (log2)” value was 0.519.
